From patent publication US20220267421A1 (INVOX PHARMA, published 2022)
Positions count from the first letter of the chain named.

B1: G1-AA/FS28-024 (antibody, human IgG1, kappa, L234A L235A, V domains shown)
VH: EVQLLESGGGLVQPGGSLRLSCAASGFTLSYSSMSWVRQAPGKGLEWVSFITPSTGYTHYADSVKGRFTISRDNSKNTLYLQMNSLRAEDTAVYYCARRALTFDYWGQGTLVTVSS
VL: EIVLTQSPGTLSLSPGERATLSCRASQSVSSSYLAWYQQKPGQAPRLLIYGASSRATGIPDRFSGSGSGTDFTLTISRLEPEDFAVYYCQQASSYPLTFGQGTKVEIKR
notes: Complete human IgG1 with LALA mutation; also called FS28-024 mAb (in G1-AA format)
B2: G1-AA/FS28-026 (antibody, human IgG1, kappa, L234A L235A, V domains shown)
VH: EVQLLESGGGLVQPGGSLRLSCAASGFTFSNYAMTWVRQAPGKGLEWVSSITPYYSKTDYADSVKGRFTISRDNSKNTLYLQMNSLRAEDTAVYYCARNWYRFDYWGQGTLVTVSS
VL: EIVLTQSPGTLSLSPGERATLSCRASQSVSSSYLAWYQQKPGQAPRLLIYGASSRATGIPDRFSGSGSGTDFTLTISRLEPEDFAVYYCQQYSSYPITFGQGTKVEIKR
notes: IgG1 LALA; also called FS28-026 mAb (in G1-AA format)
B3: G1-AA/FS28-091 (antibody, human IgG1, kappa, L234A L235A, V domains shown)
VH: B2 VH with S30T, T35S, T52K, Y55D, S56G, K57N, D59Y, W100R, Y101W, R102V
VL: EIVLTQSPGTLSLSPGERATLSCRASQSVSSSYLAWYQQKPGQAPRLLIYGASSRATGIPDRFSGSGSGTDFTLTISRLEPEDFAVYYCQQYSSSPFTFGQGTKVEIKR
notes: IgG1 LALA; also called FS28-091 mAb (in G1-AA format)

What was measured:
[1] = molecular target: T1, cell surface human mesothelin (MSLN) (human, UniProt Q13421 296-598); assay: flow cytometry, NCI-H226 cells (n = 3)
T1 construct: whole, on cells; also called cell surface MSLN
Protocol: (§1) Briefly, NCI-H226 cells (ATCC CRL-5826) were harvested from T175 cell culture flasks using StemPro Accutase (Gibco, A11105-01). Cells were centrifuged at 1200 rpm for 3 min and resuspended in ice cold FACS buffer made up of DPBS (Life Technologies, 14190169) and 1% BSA (Sigma-Aldrich, A7906) at 2×10⁶ cells/ml and 50 μl per well was seeded in a 96-well V-bottom plate (Costar, 3894). All mAbs tested were diluted in FACS buffer in 120 μl at a concentration range of 0.01-200 nM (4-fold dilutions). The NCI-H226 cells were then centrifuged, supernatant removed and cells resuspended in 100 μl of each mAb dilution and incubated at 4° C. for 45 min. Cells were washed twice by centrifugation with 150 μl FACS buffer, resuspended in 100 μl containing goat anti-human IgG (γ-chain specific) F(ab′)2 fragment-R-Phycoerythrin antibody (Sigma, P8047) diluted 1:1000 in FACS buffer and incubated at 4° C. for 45 min. The cells were washed once with 150 μl FACS buffer and then with 150 μl DPBS, resuspended in 150 μl DPBS containing DAPI (Biotium, 40043) at 1:10.000 and read on the BDCantoll or iQue (Intellicyt). Data was analysed using FlowJo v10 to determine the signal geometric mean for PE for live cells in each well.

[2] = molecular target: T2, human MSLN-His-Avi (human, UniProt Q13421 296-598, single biotin (BirA) in the biotinylated form); assay: ELISA, hMSLN-His-Avi coated at 1 ug/ml
T2 construct: Monomeric, made in HEK293-6E; Used both immobilised and in solution; also called hMSLN-His-Avi; biotinylated hMSLN-His-Avi

[3] = molecular target: T2, human MSLN-His-Avi; assay: SPR (Biacore), hMSLN-His-Avi immobilised at 100 RU, mAb injected
Protocol: (§2) Human MSLN-His-Avi was immobilised on flow cell 2 on a CM5 Series S BIAcore sensor chip (GE Healthcare, BR100530) using an amine coupling kit (GE Healthcare, BR10050) to approximately 200 response units (RU). Flow cell 1 was left blank for subtraction. HEK293-6E supernatants or purified proteins were adjusted with HBS-EP+(GE Healthcare) to approximately 50 nM anti-MSLN mAb per sample. Samples were injected over flow cell 1 and 2 for 2.5 min at 30 μl/min and then allowed to dissociate in HBS-EP buffer for 2.5 min. Regeneration was achieved by injecting 10 mM glycine pH 1.5 (GE Healthcare, BR100354) for 30 seconds at a rate of 30 μl/min. Subtracted data (flow cell 2−flow cell 1) were analysed using BIAevaluation 3.2 Software (GE Healthcare).
(§3) For each bin described in 2.1.3, the binding kinetics were determined using the same method as described in section 2.1.2, except that human or cyno MSLN-His-Avi was immobilised at 50 or 100 RU. Clones were tested at a concentration range of 81 nM to 0.33 nM in 3-fold dilutions.

[4] = molecular target: T1, cell surface human mesothelin (MSLN); assay: flow cytometry on NCI-H226 cells (endogenous cell surface MSLN), detection with anti-human IgG-PE, geometric mean MFI
Protocol: as §1

[5] = molecular target: T2, human MSLN-His-Avi; assay: SPR (Biacore), hMSLN-His-Avi immobilised at 50 RU, mAb injected
Protocol: as §2, §3

T2 sequence (Q13421 other isoform, or with tags, fused parts or gaps): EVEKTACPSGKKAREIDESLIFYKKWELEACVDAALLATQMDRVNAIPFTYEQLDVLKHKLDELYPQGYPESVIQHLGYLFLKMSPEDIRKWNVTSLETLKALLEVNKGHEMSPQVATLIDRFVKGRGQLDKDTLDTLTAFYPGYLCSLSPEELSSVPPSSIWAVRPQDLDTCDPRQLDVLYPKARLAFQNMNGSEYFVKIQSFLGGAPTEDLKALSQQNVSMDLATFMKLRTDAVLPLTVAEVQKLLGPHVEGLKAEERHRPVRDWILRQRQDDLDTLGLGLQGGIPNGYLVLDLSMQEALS
T1 sequence (Q13421 other isoform, or with tags, fused parts or gaps limits assumed): as the sequence (Q13421 other isoform, or with tags, fused parts or gaps) above

Binder	EC50 [1] [pM]	Emax (MFI signal) [1] [MFI]	EC50 [2] [pM]	maximum binding signal [2]	Kd [3] [pM]	EC50 (read off the curve) [4] [pM]	Kd [5] [pM]
B1	620	14600	~500	3	230	~1000	770
B2	1080	13600	~500	3	120	~1000	210
B3	1220	11900	~500	3	760	~1000	1240
